# Variants at the floor of the assay were thinned out.
# B1: TPR 5TU (parent)
# chain: GGAUCUUCUCGAUCUAACAAAAAAGACAAAUCUGCCACAAAGCUUGAGAGCAUCUUCGGAUGCAGAGGCGGCAGCCUUCGGUGGCGCGAUAGCGCCAACGUUCUCAACUAUGACACGCAAAACGCGUGCUCCGUUGAAUGGAGUUUAUCAUG
# Variants of: B1
# Assay: polymerase ribozyme fitness, log enrichment relative to wild type (log ratio); higher = more active; in vitro selection for triplet polymerase activity
# Procedure, shortened: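 Each subunit of a heterodimeric triplet polymerase ribozyme was mutagenized into a library by PCR, transcribed, and subjected to one round of in vitro selection, run in triplicate. Libraries were annealed with a biotinylated primer, the partner subunit and triplets, incubated frozen at −7 °C, and extended constructs were gel-excised, captured on streptavidin beads and recovered by RT-PCR. Input and output libraries were sequenced on Illumina, keeping genotypes with ≥10 input reads and ≥1 read per output. Fitness is log base 2 of genotype enrichment divided by wild-type enrichment, from inverse-variance-weighted replicate averages.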
row,Variant,polymerase ribozyme fitness (log ratio)
1,A26G A39G C85U,≤ -4.2
2,C27A A37U G42C A106C C116G A121G G128A U145G,≤ -4.2
3,A26G A52C G59C A64C,≤ -4.2
4,C27A A28C C57G C76A A91C,≤ -4.2
5,A26U C85U A115G,-3.36
6,A26U C43U U53A G100C,≤ -4.2
7,G25U G50U C54A A66U A91C,≤ -4.2
8,A26C A52G,-1.25
9,A26U A37C C95G A107C G152U,≤ -4.2
10,A26C U45G C63U C75U G80C G112C U144G,≤ -4.2
11,G25U A52C U90C C95U U111A U135A U151G,≤ -4.2
12,A26U G92C,-3.52
13,A26U C51U C72U A73U C85A C99G G100C U111G,≤ -4.2
14,C27A U55A G71A U77C C95U A113C C149G,≤ -4.2
15,G25U A41G U53G C54U G92C G124A U151C,≤ -4.2
16,C27A C54G C105U,≤ -4.2
17,G25U C99U A119C A120G,-3.26
18,A26C G42A A107C,≤ -4.2
19,C27A C85A G86U A91C U101A C118G,≤ -4.2
20,C27G A28G C69G C93G C95U,≤ -4.2
21,A26U U61A G71C C79U A98G U151A,≤ -4.2

row,Variant,polymerase ribozyme fitness (log ratio)
1,A26U C35U G42C C108A A115C G133U U135A A142G U146C A147G,≤ -4.2
2,A26U A147U,-0.0486
3,A26G U78C,-3.95
4,A26U C85U C105U A142C,-3.69
5,G25U U61G C99G A106G A107U A150G,≤ -4.2
6,A26C A52U A89C,-3.85
7,A26G C36A,≤ -4.2
8,G25U C69A U82G A89G C125U C149U,≤ -4.2
9,A26C C43U A52G G71C A97G,≤ -4.2
10,C27A U33G A39G A60C C93U U127C G140A,-4.14
11,A26U A28U C32A A52U A73U A91U G92A A113G U148A G152U,≤ -4.2
12,A26U C43A A49G G58C C93U G112A,≤ -4.2
13,A26U G83U C95G C105A G141A U146C U151C,≤ -4.2
14,A26U C96U C108G U127A,≤ -4.2
15,G25U G83A C95A A138U U139C,≤ -4.2
16,A26U G46U,-3.87
17,A26U A39U G58A A66C C93U C149G,≤ -4.2
18,C27A G88A C96A A97G G128U U135G U145A,≤ -4.2
19,A26C A41C A49C G62C A138G,≤ -4.2
20,A26U G141U,-1.94
21,A26C C96A A120G G124U,-2.02

row,Variant,polymerase ribozyme fitness (log ratio)
1,G25U U55A C85A G140C,≤ -4.2
2,C27A G86U U144A,≤ -4.2
3,A26C A107G,≤ -4.2
4,C27A C85U C96A C114U A119G G140C,-4.07
5,A26U C27U U33A G34A U56A C57U C76A C85G G88A U127C,≤ -4.2
6,A26U G34U G59C G62A C75G C93G U104A G152A,≤ -4.2
7,A26C A47G C63A A91C A97U A98G A138U,≤ -4.2
8,A26U U44A G58A C87U A107G C123G G141C,-3.93
9,G25U C27U C93U G143U,≤ -4.2
10,A26U C51U C114U C129U,≤ -4.2
11,G25U A66U C93U G94U C125A G126U,≤ -4.2
12,A26U A49U G68U C72U G84A G86U G112A A122G,≤ -4.2
13,A26C,-1.49
14,A26G,-2.11
15,A26U,-1.21
16,C27A G117A,-3.86
17,G25U C35A A41G C54U C87U C95U,-3.99
18,G25U U61G,-2.3
19,G25U U61A,-3.25
20,C27A G46U G50U U56A G70C U101G,≤ -4.2
21,A26U G50A A64G U101G G141A,≤ -4.2

row,Variant,polymerase ribozyme fitness (log ratio)
1,A26U C32G U45C G50C U53G G84A C99U A137G,≤ -4.2
2,A26G A30C A39C A47U C76U C93U A97G G133A G140U G141A,-4.02
3,A26C C85U,-1.86
4,C27A G86A G94A U102G C132U G133U U134A,≤ -4.2
5,A26C U82A C95A,-2
6,G25U G42A C87G,≤ -4.2
7,C27A A28G A40C A47C A73C U77C C99G,≤ -4.2
8,A26G U77A C87U A89C,≤ -4.2
9,A26U A49U A137G,≤ -4.2
10,A26C A47C U77C U102C G117C,≤ -4.2
11,A26U U148A,-4.11
12,C27A A66C A73C G92U U148C,≤ -4.2
13,A26U C96U A142C,-3.03
14,A26U C69G A142U,-2.62
15,C27A C63A G80C C85G A119C U144A,≤ -4.2
16,A26U C51U A52U C54G G86U C99A A107C C123G,≤ -4.2
17,G25U A89U C96G G100A U102C C118A A119G,≤ -4.2
18,A26C A64G G83U C85G A115G,≤ -4.2
19,A26U A39C U45A A60C U61G G83C U102C U111G,≤ -4.2
20,G25U G81A G94U A120U G141C,-3.76
21,C27A A39G U53C C95A A121U G136C,≤ -4.2
